Reference: PMC6525112, “Vitamin D (1,25(OH)2D3) induces α-1-antitrypsin synthesis by CD4^+ T cells, which is required for 1,25(OH)2D3-driven IL-10” (The Journal of Steroid Biochemistry and Molecular Biology, 2019)

B1: Biotinylated-C3a (natural protein)
chain: not shown
modifications: biotin (biotinamidohexanoic acid 3-sulfo-N-hydroxysuccinimide ester, random, no more than one biotin per molecule of C3a)
notes: C3a anaphylatoxin, the cut product of complement C3; also called randomly biotinylated C3a; complement C3a; source: bought: Complement Technology Inc; biotinylated in-house
B2: C3a (natural protein)
chain: not shown
notes: C3a anaphylatoxin, the cut product of complement C3; also called complement C3a; complement anaphylatoxin C3a; source: bought: Complement Technology, Inc

Assays:
[1] = biological target: T1, α-1-antitrypsin (analyte of the SPR assay) (human, UniProt P01009 25-418); assay: SPR; Biacore T200; biotinylated C3a immobilised by amine coupling on CM5 chip (800-1500 RU); serially diluted α-1-antitrypsin injected at 10 μl/minute in Dulbecco's PBS; regeneration 2.0 M KCl; blank surface subtracted; conditions: both partners purified
T1 construct: alpha-1-antitrypsin, human; May be the same preparation as m1 or the unlabelled form of m2; also called AAT

[2] = biological target: T2, NT-647 labelled recombinant α-1-antitrypsin (human, UniProt P01009 25-418, NT-647 label); assay: MST; Monolith NT.115, LED 70%, MST power 20%; 0.5 μM NT-647 labelled α-1-antitrypsin incubated 30 min with C3a at 6 nM to 205 μM; conditions: both partners purified
T2 construct: alpha-1-antitrypsin, human, recombinant from E. coli (not glycosylated); In the functional row the recombinant protein was used without the label; also called NT-647 labeled AAT; source: E. coli recombinant system, purified in-house
T2 sequence (P01009 25-418): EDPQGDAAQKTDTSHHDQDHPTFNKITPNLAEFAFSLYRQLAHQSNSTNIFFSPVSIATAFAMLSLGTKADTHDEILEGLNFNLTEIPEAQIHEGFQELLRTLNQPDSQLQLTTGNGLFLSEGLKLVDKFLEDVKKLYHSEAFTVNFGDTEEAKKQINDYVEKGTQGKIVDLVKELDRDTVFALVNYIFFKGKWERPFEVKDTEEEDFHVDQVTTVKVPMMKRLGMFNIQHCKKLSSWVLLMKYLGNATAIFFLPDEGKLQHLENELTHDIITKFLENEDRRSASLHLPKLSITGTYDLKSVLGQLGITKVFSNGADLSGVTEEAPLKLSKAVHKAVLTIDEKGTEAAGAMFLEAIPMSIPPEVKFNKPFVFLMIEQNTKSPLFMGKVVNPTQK

T1 sequence (P01009 25-418): as above

Binder	Kd [1]	Kd [2]
B1	7.53 µM	–
B2	–	8.4 µM
